Substrate: O=C(O)c1cccc(O)c1O
Experiment: steady-state decarboxylation kinetics
Format: biochemical, Aspergillus oryzae
Details: Mg2+-loaded enzyme; decarboxylation direction

B1: 2,3-DHBD_Ao (Aspergillus oryzae RIB40) (protein)
chain: MLGKIALEEAFALPRFEEKTRWWASLFSTDAETHVKEITDINKIRIEHADKHGVGYQILSYTAPGVQDIWDPVEAQALAVEINDYIAEQVRVNPDRFGAFATLSMHNPKEAADELRRCVEKYGFKGALVNDTQRAGPDGDDMIFYDNADWDIFWQTCTELDVPFYMHPRNPTGTIYEKLWADRKWLVGPPLSFAHGVSLHVLGMVTNGVFDRHPKLQIIMGHLGEHVPFDMWRINHWFEDRKKLLGLAETCKKTIRDYFAENIWITTSGHFSTTTLNFCMAEVGSDRILFSIDYPFETFSDACEWFDNAELNGTDRLKIGRENAKKLFKLDSYKDSSA
notes: recombinant, purified by size exclusion chromatography
  Km: 208 µM
  kcat: 15 s–1

Reference: paper PMC7894528, “Metal Ion Promiscuity and Structure of 2,3‐Dihydroxybenzoic Acid Decarboxylase of Aspergillus oryzae” (Chembiochem, 2020)
